Reference: US10513547B2, “Peptides and combination of peptides and scaffolds thereof for use in immunotherapy against colorectal carcinoma (CRC) and other cancers” (Immatics Biotechnologies GmbH, priority 2015, dated 2019)

Biological target: HLA-A*02:01 (Homo sapiens, UniProt P04439, D140Y/D185E/D98H/E176V/E277Q/G131W/G231S/I119V/I121R/I166T/I218V/L300P/L318F/N151K/N90K/P208A/P217A/Q86G/Q94H/R138H/R169H/T345S)
Test: MHC binding assay (UV-ligand exchange, beta2m ELISA, peptide exchange yield)
Conditions: binding to HLA-A*02:01
Excerpt: Candidate peptides for T cell based therapies according to the present invention were further tested for their MHC binding capacity (affinity). The individual peptide-MHC complexes were produced by UV-ligand exchange, where a UV-sensitive peptide is cleaved upon UV-irradiation, and exchanged with the peptide of interest as analyzed. Only peptide candidates that can effectively bind and stabilize the peptide-receptive MHC molecules prevent dissociation of the MHC complexes. To determine the yield of the exchange reaction, an ELISA was performed based on the detection of the light chain ([…]) of stabilized MHC complexes. The assay was performed as generally described in Rodenko et al. (Rodenko et al., 2006).
96 well MAXISorp plates (NUNC) were coated over night with 2 ug/ml streptavidin in PBS at room temperature, washed 4× and blocked for 1 h at 37° C. in 2% BSA containing blocking buffer. Refolded HLA-A*02:01/MLA-001 monomers served as standards, covering the range of 15-500 ng/ml. Peptide-MHC monomers of the UV-exchange reaction were diluted 100 fold in blocking buffer. Samples were incubated for 1 h at 37° C., washed four times, incubated with 2 ug/ml HRP conjugated anti-β2m for 1 h at 37° C., washed again and detected with TMB solution that is stopped with […]. Absorption was measured at 450 nm. Candidate peptides that show a high exchange yield (preferably higher than 50%, most preferred higher than 75%) are generally preferred for a generation and production of antibodies or fragments thereof, and/or T cell receptors or fragments thereof, as they show sufficient avidity to the MHC molecules and prevent dissociation of the MHC complexes.

Substance	Peptide exchange (MHC class I binding score, peptide exchange yield)
52 (ALDSSNSMQTI; listed as Homo sapiens) [compound 52]	“++” (≥20% = ++)
53 (FLLGSEIKL; listed as Homo sapiens) [compound 53]	“+++” (≥50 = +++)
54 (ALLNGEYLLAA; listed as Homo sapiens) [compound 54]	“+++” (≥50 = +++)
56 (VLFTDEGVPKFL; listed as Homo sapiens) [compound 56]	“++” (≥20% = ++)
57 (NLLEKENYL; listed as Homo sapiens) [compound 57]	“+++” (≥50 = +++)
58 (AMADKMDMSL; listed as Homo sapiens) [compound 58]	“++” (≥20% = ++)
60 (VLDEDEPRFL; listed as Homo sapiens) [compound 60]	“++” (≥20% = ++)
61 (KLLKLFQGV; listed as Homo sapiens) [compound 61]	“+++” (≥50 = +++)
62 (YLAPENGYL; listed as Homo sapiens) [compound 62]	“++” (≥20% = ++)
63 (KLFSILSTV; listed as Homo sapiens) [compound 63]	“++” (≥20% = ++)
66 (GLDDGPDFL; listed as Homo sapiens) [compound 66]	“++” (≥20% = ++)
67 (SLNDLEKDVMLL; listed as Homo sapiens) [compound 67]	“+++” (≥50 = +++)
68 (SILQFVHMV; listed as Homo sapiens) [compound 68]	“+++” (≥50 = +++)
69 (GMLNEAEGKAIKL; listed as Homo sapiens) [compound 69]	“++” (≥20% = ++)
70 (MISELEVRL; listed as Homo sapiens) [compound 70]	“+++” (≥50 = +++)
71 (RLWTEIPTAI; listed as Homo sapiens) [compound 71]	“+++” (≥50 = +++)
72 (YLLDYPNNLL; listed as Homo sapiens) [compound 72]	“+++” (≥50 = +++)
73 (YLFDIAVSM; listed as Homo sapiens) [compound 73]	“+++” (≥50 = +++)
74 (YLMGFLHAV; listed as Homo sapiens) [compound 74]	“+++” (≥50 = +++)
75 (EMIENIQSV; listed as Homo sapiens) [compound 75]	“++” (≥20% = ++)
76 (YLIGEKQHYL; listed as Homo sapiens) [compound 76]	“+++” (≥50 = +++)

Substance	Peptide exchange (MHC class I binding score, peptide exchange yield)
77 (SLLKRDFGA; listed as Homo sapiens) [compound 77]	“++” (≥20% = ++)
78 (ALDPELLLL; listed as Homo sapiens) [compound 78]	“++” (≥20% = ++)
79 (SLAADQLLKL; listed as Homo sapiens) [compound 79]	“++” (≥20% = ++)
80 (QVDEVVDIMRV; listed as Homo sapiens) [compound 80]	“++” (≥20% = ++)
81 (ALLSQQTHL; listed as Homo sapiens) [compound 81]	“+++” (≥50 = +++)
82 (QLYEEPDTKL; listed as Homo sapiens) [compound 82]	“++” (≥20% = ++)
83 (LTIEDGIFEV; listed as Homo sapiens) [compound 83]	“+++” (≥50 = +++)
84 (SMVEDITGLRL; listed as Homo sapiens) [compound 84]	“+++” (≥50 = +++)
85 (ILHDINSDGVL; listed as Homo sapiens) [compound 85]	“++” (≥20% = ++)
86 (KVFPGKISV; listed as Homo sapiens) [compound 86]	“++” (≥20% = ++)
87 (LLFDAPDLRL; listed as Homo sapiens) [compound 87]	“+++” (≥50 = +++)
88 (KLDIKVETV; listed as Homo sapiens) [compound 88]	“++++” (≥75% = ++++)
89 (SLIEYEFRV; listed as Homo sapiens) [compound 89]	“+++” (≥50 = +++)
90 (GLLKPGLNVVL; listed as Homo sapiens) [compound 90]	“+++” (≥50 = +++)
91 (TVDVATPSV; listed as Homo sapiens) [compound 91]	“+++” (≥50 = +++)
92 (WIDDTSAFV; listed as Homo sapiens) [compound 92]	“+++” (≥50 = +++)
93 (SLQELRLLL; listed as Homo sapiens) [compound 93]	“++++” (≥75% = ++++)
94 (KSMDIVLTV; listed as Homo sapiens) [compound 94]	“+++” (≥50 = +++)
95 (AILDAHIEV; listed as Homo sapiens) [compound 95]	“++++” (≥75% = ++++)
96 (KLYSRLVYV; listed as Homo sapiens) [compound 96]	“++” (≥20% = ++)
97 (ALWWGVVTV; listed as Homo sapiens) [compound 97]	“++” (≥20% = ++)

Substance	Peptide exchange (MHC class I binding score, peptide exchange yield)
98 (AMNGKSFSV; listed as Homo sapiens) [compound 98]	“++” (≥20% = ++)
99 (KLLEVDLDTV; listed as Homo sapiens) [compound 99]	“+++” (≥50 = +++)
100 (SLDDFLATA; listed as Homo sapiens) [compound 100]	“+++” (≥50 = +++)
101 (GLSEGHTFQV; listed as Homo sapiens) [compound 101]	“+++” (≥50 = +++)
102 (KILVSLIEV; listed as Homo sapiens) [compound 102]	“+++” (≥50 = +++)
103 (FLFGYPKRL; listed as Homo sapiens) [compound 103]	“++” (≥20% = ++)
104 (ILLTIKDDTIYL; listed as Homo sapiens) [compound 104]	“+++” (≥50 = +++)
105 (YALDLSTFL; listed as Homo sapiens) [compound 105]	“+++” (≥50 = +++)
106 (SLISEKILL; listed as Homo sapiens) [compound 106]	“+++” (≥50 = +++)
107 (ALLGGGPYML; listed as Homo sapiens) [compound 107]	“+++” (≥50 = +++)
108 (SLAELVPGVGGI; listed as Homo sapiens) [compound 108]	“+++” (≥50 = +++)
109 (ALDGDQMEL; listed as Homo sapiens) [compound 109]	“++” (≥20% = ++)
110 (LLGELPRLLLL; listed as Homo sapiens) [compound 110]	“+++” (≥50 = +++)
112 (KLGQVLIYL; listed as Homo sapiens) [compound 112]	“++” (≥20% = ++)
113 (ILYDLQQNL; listed as Homo sapiens) [compound 113]	“++” (≥20% = ++)
114 (TAVGHALVL; listed as Homo sapiens) [compound 114]	“+” (≥10% = +)
115 (SLFDVSHML; listed as Homo sapiens) [compound 115]	“+++” (≥50 = +++)
116 (LVYQFVHPI; listed as Homo sapiens) [compound 116]	“++” (≥20% = ++)
117 (TLQPVDNSTISL; listed as Homo sapiens) [compound 117]	“++” (≥20% = ++)
118 (LLADLKTMV; listed as Homo sapiens) [compound 118]	“+++” (≥50 = +++)
